Here are results for 4 molecules from US20250282887A1 (Amgen, published 2025).

One assay addresses T1, human MAGEB4 (human, UniProt O15481 1-346).
T1 construct: whole, on cells
T1 sequence (looked up): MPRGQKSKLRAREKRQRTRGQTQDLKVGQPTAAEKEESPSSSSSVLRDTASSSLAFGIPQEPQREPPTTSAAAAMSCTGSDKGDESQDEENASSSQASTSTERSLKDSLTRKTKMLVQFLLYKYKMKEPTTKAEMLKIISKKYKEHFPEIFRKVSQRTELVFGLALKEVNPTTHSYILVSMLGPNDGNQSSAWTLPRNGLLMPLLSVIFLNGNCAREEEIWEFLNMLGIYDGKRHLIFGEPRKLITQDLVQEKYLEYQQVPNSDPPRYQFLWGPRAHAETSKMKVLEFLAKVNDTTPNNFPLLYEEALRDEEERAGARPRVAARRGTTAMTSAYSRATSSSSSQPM
The assay is described as follows: IHC, FFPE CHO cells transfected with human MAGEB4. The text has this: Negative control cells included parental Chinese hamster ovary (CHO) cells, CHO cells stably transfected with mCherry Vector Control (minus Myc/DDK tags), CHO cells stably transfected with mCherry-human DCAF4L2 (plus Myc/DDK tags). The cross-reactivity control cells included CHO cells transfected with mCherry Vector Control (plus Myc/DDK tags) with one of the human MAGE-B or MAGE-A family members (MAGEA1, MAGEA2, MAGEA3, MAGEA4, MAGEA5, MAGEA6, MAGEA8, MAGEA9, MAGEA11, MAGEA12, MAGEB1, MAGEB3, MAGEB4, MAGEB5, MAGEB6, MAGEB10, MAGEB16, MAGEB17, MAGEB18). Positive control cell lines included CHO cells transfected with mCherry Vector (plus Myc/DDK tags) with human MAGE-B2 or CHO cells transfected with mCherry Vector (open reading frame (ORF); minus Myc/DDK tags) with human MAGEB2, and thirteen human cancer cell lines with known endogenous RNA expression level of MAGEB2 (U266B1, T98G, KMM-1, U20S, CFPAC-1, SCaBER, UACC-257, CFPAC-1, VMRC-LCD, NCI-H1703, UM-UC-3, NCI-H1395, NCIH82).
(§1) FFPE samples were sectioned at 4 μm and mounted on positive charged glass slides. After mounting, paraffin sections were air-dried at room temperature. FFPE TMA samples were received as freshly sectioned and mounted on glass slides. The fully automated IHC assay was performed on a Discovery Ultra Stainer (Ventana Medical Systems, Tucson, AZ) using Ventana Anti-Rabbit HQ (cat #760-4815), Ventana Anti-HQ HRP (cat #760-4820), and Ventana Antibody Diluent with Casein (cat #760-219) (Ventana Medical Systems, Tucson, AZ). The slides were baked on the Discovery Ultra Stainer at 60° C. for 8 minutes, de-paraffinized with Ventana Discovery wash (cat #950-510) for 3 cycles (8 minutes each) at 69° C., and underwent cell conditioning (target retrieval) at 95° C. for 16 minutes (for cell arrays) or 32 minutes (tissues or TMAs) in CC1 buffer (cat #950-500). Following this, slides were incubated with Background Sniper (cat #BS966M, Biocare Medical, Pacheco, CA) in a Ventana Option Prep kit (cat #771-751) for 28 minutes, incubated with CM inhibitor (a part of the Ventana DAB kit cat #760-159) for 12 minutes, and incubated for 1 h at RT with MAGE-B2 antibody diluted with Ventana diluent with Casein in a Ventana Prep kit (cat #770-001) (working concentration at 0.1 μg/ml for cell pellet, or 1-5 ug/ml for tissues) or with a matched concentration of isotype control Rabbit IgG1 antibody.

The target of assay [1] is T2, Human MAGEB2 (Melanoma-associated antigen B2) (human, UniProt O15479 1-319).
T2 construct: Intracellular antigen detected by IHC in FFPE material: CHO cells transfected with human MAGEB2 (mCherry vector with Myc/DDK tags, or ORF without tags)
T2 sequence: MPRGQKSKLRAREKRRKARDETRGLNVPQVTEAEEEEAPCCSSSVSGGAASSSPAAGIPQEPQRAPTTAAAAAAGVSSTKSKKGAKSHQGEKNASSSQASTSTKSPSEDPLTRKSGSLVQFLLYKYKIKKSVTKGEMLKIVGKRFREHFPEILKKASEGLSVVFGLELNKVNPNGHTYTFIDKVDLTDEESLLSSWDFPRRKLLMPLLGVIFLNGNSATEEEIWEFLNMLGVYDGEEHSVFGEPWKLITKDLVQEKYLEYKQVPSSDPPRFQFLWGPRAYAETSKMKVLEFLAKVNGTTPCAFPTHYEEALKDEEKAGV
The assay is described as follows: IHC on FFPE U20S cells (endogenous MAGEB2). On the procedure: as §1, with “antibody. Following this, slides were incubated with the Ventana Anti-Rabbit HQ (cat #760-4815) for 28 minutes at RT, Ventana Anti-HQ HRP (cat #760-4820) for 28 minutes at RT, and signals detected with Ventana DAB chromogen kit (cat #760-159) for 5 minutes at RT. Slides were counterstained with Ventana Hematoxylin II (cat #5266726001) for 8 minutes and Ventana Bluing reagent (cat #526676900) for 4 minutes. Slides were coverslipped and digitized using an Aperio AT2 scanner (Leica Biosystems Inc, Buffalo Grove, IL).” for “antibody.”

Assay [2] has as its target T2, Human MAGEB2 (Melanoma-associated …). Put plainly: IHC on FFPE UACC-257 cells (endogenous MAGEB2). The method, then:
as §1, with “antibody. Following this, slides were incubated with the Ventana Anti-Rabbit HQ (cat #760-4815) for 28 minutes at RT, Ventana Anti-HQ HRP (cat #760-4820) for 28 minutes at RT, and signals detected with Ventana DAB chromogen kit (cat #760-159) for 5 minutes at RT. Slides were counterstained with Ventana Hematoxylin II (cat #5266726001) for 8 minutes and Ventana Bluing reagent (cat #526676900) for 4 minutes. Slides were coverslipped and digitized using an Aperio AT2 scanner (Leica Biosystems Inc, Buffalo Grove, IL).” for “antibody.”

For another assay, the target named is T3, human MAGEA6 (human, UniProt P43360 1-314).
T3 construct: whole, on cells; FFPE cell pellets
T3 sequence (P43360 whole entry): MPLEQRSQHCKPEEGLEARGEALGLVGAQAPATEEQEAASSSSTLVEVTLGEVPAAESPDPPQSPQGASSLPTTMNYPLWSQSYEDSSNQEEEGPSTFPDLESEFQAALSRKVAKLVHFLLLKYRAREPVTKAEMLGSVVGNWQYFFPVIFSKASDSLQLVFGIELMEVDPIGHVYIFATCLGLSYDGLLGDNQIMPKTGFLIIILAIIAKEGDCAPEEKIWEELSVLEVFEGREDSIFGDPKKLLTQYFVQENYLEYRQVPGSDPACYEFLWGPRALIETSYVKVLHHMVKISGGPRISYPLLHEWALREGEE
The assay is described as follows: IHC, FFPE CHO cells transfected with human MAGEA6. The method, then:
as §1, with “antibody. Following this, slides were incubated with the Ventana Anti-Rabbit HQ (cat #760-4815) for 28 minutes at RT, Ventana Anti-HQ HRP (cat #760-4820) for 28 minutes at RT, and signals detected with Ventana DAB chromogen kit (cat #760-159) for 5 minutes at RT. Slides were counterstained with Ventana Hematoxylin II (cat #5266726001) for 8 minutes and Ventana Bluing reagent (cat #526676900) for 4 minutes. Slides were coverslipped and digitized using an Aperio AT2 scanner (Leica Biosystems Inc, Buffalo Grove, IL).” for “antibody.”

B1: 1I14 (antibody, V domains shown)
VH: QSVEESGGRLVTPGTPLTLTCTISGFSLSSYAMSWVRQAPGKGLEWIGSIGGGGSAVYASWAKGRFTISKTSTTVDLRITSPTTEDTAMYFCGRGFYSIDLWGPGTLVTVSS
VL: DVVMTQTPASVEATVGGTVTIKCQSSQSVYDNNALAWYQQNAGQRPRLLIYGASTLASGVPSRFSASGSGTEFTLTISDLECADAATYYCQCTYYVSSYQNDFGGGTEVVVKG
notes: also called MAGE-B2 (1i14)
As for B1, the binding result in the assay with human MAGEB4 and with human MAGEA6 was “no binding (tested: 0.1 µg/ml)” in each case. In addition, the “IHC % Frequency” value was 70% in assay [1] and 0% in assay [2]. Also, the “IHC Intensity” value in assay [1] was found to be 2.

B2: 1C3 (antibody, V domains shown)
VH: QSLEESGGGLVQPEGSLTLTCTAFGVTLTNYYICWVRQAPGKGLEWVGCIDNANGRTYYASWAKGRFTISKTSSTTGTLQMTSLTAADTATYFCARSLATPLWGPGTLVTVSS
VL: DIVMTQTPSSVEAAVGGTVTIKCQASQNISSYLAWYQQKPGQPPKLLIYRASTLASGVPSRFKGSGSGTQFTLTISDLECADAATYYCQSYDDSRSSNFFYAFGGGTEVVVKG
notes: also called MAGE-B2 (IC3); anti-MAGEB2 antibody 1C3
As for B2, the binding result with human MAGEB4 and in the assay with human MAGEA6 was “no binding (tested: 0.1 µg/ml)” throughout. Also, the “IHC % Frequency” value in assay [1] came to 60%; in assay [2] it was 0%. Besides, the “IHC Intensity” value in assay [1] was 2.

B3: 4G17 (antibody, IgG1, V domains shown)
VH: QSLEESGGGLVQPEGSLTLTCTASGVTLSNYYICWVRQAPGKGLEWIGCIDNVNGRTYYASWAKGRFTISKTSSTTGTLQMTSLTAADTATYFCARSLATPLWGPGTLVTVSS
VL: DIVMTQTPASVEAAVGGTVTIKCQASQNIDSYLAWYQQKPGQPPKLLIYRASTLASGVPSRFKGSGSGTEFTLTISDLECADAATYYCQSYDDSRSSSFFYGFGGGTEVVVK
notes: Rabbit monoclonal IgG1; Tested as supernatant and as small batch purified antibody; also called MAGE-B2 (4G17); anti-MAGEB2 antibody 4G17
B3: the binding result with human MAGEB4 and with human MAGEA6 was “no binding (tested: 0.1 µg/ml)” each time. Besides, the “IHC % Frequency” value in assay [1] stood at 60%; in assay [2], 0%. Moreover, the “IHC Intensity” value in assay [1] was 2; in assay [2], 0.

B4: 1J15 (antibody, IgG1, V domains shown)
VH: QSLEESGGGLVQPEGSLTLTCTAFGFTLNNYYICWVRQAPGKGLEWIACIDNANGRTYYASWAKGRFTISKTSSTTVTLQMTSLTAADTATYFCARSLSTPLWGPGTLVTVSS
VL: DIVMTQTPASVEAAVGGTVTIKCQASQSISSYLSWYQQKPGQPPKLLIYRASTLASGVPSRFRGSGSGTQFTLTISDLECADAATYYCQSYDDSSDNNFFYGFGGGTEVVVR
notes: Rabbit monoclonal IgG1; Tested as supernatant and as small batch purified antibody; also called MAGE-B2 (IJ15); anti-MAGEB2 antibody 1J15
For B4, the binding result with human MAGEB4 and with human MAGEA6 was “no binding (tested: 0.1 µg/ml)” in each case. Further, the “IHC % Frequency” value in assay [1] was determined as 50%; in assay [2], 0%. Besides, the “IHC Intensity” value in assay [1] came to 1; in assay [2], 0.
